Results taken from the supplement of paper PMC5998384.

Columns and labels:
[1] = system: HeLa Kyoto; experiment: solubility change mitosis vs G1/S (difference of NP-40 vs SDS log2 ratios) (log2 ratio difference); higher = more soluble in mitosis
[2] = system: HeLa Kyoto; experiment: thermal stability score vs G1/S (z-score of summed log2 fold changes over temperatures); higher = more thermally stable than in G1/S
[3] = system: HeLa Kyoto; experiment: melting temperature (median over replicates), in situ; higher = more thermally stable
[4] = system: HeLa Kyoto; experiment: solubility in G1/S (NP-40 vs SDS abundance) (log2 ratio); higher = more soluble; details: cell cycle stage: G1/S
[5] = cell cycle stage: early G1 (4.5 h after nocodazole release)
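Wherever melting temperature (median over replicates), in situ is given: HeLa Kyoto cells synchronized by double thymidine or nocodazole block, proteins quantified by TMT10plex mass spectrometry, three independent biological replicates.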
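Wherever solubility change mitosis vs G1/S (difference of NP-40 vs SDS log2 ratios) is given: synchronized HeLa Kyoto cells (double thymidine block for G1/S, nocodazole release for mitosis), protein amounts in NP-40 versus SDS lysates quantified by mass spectrometry, three biological replicates.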
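Wherever solubility in G1/S (NP-40 vs SDS abundance) is given: HeLa Kyoto cells arrested at G1/S by double thymidine block, proteins quantified by TMT10plex mass spectrometry in mild NP-40 versus SDS extracts, three biological replicates.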
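Wherever thermal stability score vs G1/S (z-score of summed log2 fold changes over temperatures) is given: synchronized HeLa Kyoto cells, proteins quantified by TMT10plex mass spectrometry, three biological replicates, mitosis taken 0.5 h after nocodazole release, G1/S directly after double thymidine block.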

MMTAG2, sequence (chain, as listed by the source): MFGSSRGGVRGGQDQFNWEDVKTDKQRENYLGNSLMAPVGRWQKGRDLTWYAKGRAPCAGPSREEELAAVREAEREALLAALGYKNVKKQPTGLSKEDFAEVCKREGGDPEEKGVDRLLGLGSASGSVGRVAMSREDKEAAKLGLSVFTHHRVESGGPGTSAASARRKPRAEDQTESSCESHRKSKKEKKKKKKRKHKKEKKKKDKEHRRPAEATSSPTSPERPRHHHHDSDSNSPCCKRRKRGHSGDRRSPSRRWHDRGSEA

## MAAGGGGGSSKASSSSASSAGALESSLDRKFQSVTNTMESIQGLSSWCIENKKHHSTIVYHWMKWLRRSAYPHRLNLFYLANDVIQNCKRKNAIIFRESFADVLPEAAALVKDPSVSKSVERIFKIWEDRNVYPEEMIVALREALSTTFKTQKQLKENLNKQPNKQWKKSQTSTNPKAALKSKIVAEFRSQALIEELLLYKRSEDQIELKEKQLSTMRVDVCSTETLKCLKDKTGGKKFSKEFEEASSKLEEFVNGLDKQVKNGPSLTEALENAGIFYEAQYKEVKVVANAYKTFANRVNNLKKKLDQLKSTLPDPEESPVPSPSMDAPSPTGSESPFQGMGGEESQSPTMESEKSATPEPVTDNRDVEDMELSDVEDDGSKIIVEDRKEKPAEKSAVSTSVPTKPTENISKASSCTPVPVTMTATPPLPKPVNTSLSPSPALALPNLANVDLAKISSILSSLTSVMKNTGVSPASRPSPGTPTSPSNLTSGLKTPAPATTTSHNPLANILSKVEITPESILSALSKTQTQSAPALQGLSSLLQSVTGNPVPASEAASQSTSASPANTTVSTIKGRNLPSSAQPFIPKSFNYSPNSSTSEVSSTSASKASIGQSPGLPSTTFKLPSNSLGFTATHNTSPAAPPTEVTICQSSEVSKPKLESESTSPSLEMKIHNFLKGNPGFSGLNLNIPILSSLGSSAPSESHPSDFQRGPTSTSIDNIDGTPVRDERSGTPTQDEMMDKPTSSSVDTMSLLSKIISPGSSTPSSTRSPPPGRDESYPRELSNSVSTYRPFGLGSESPYKQPSDGMERPSSLMDSSQEKFYPDTSFQEDEDYRDFEYSGPPPSAMMNLEKKPAKSILKSSKLSDTTEYQPILSSYSHRAQEFGVKSAFPPSVRALLDSSENCDRLSSSPGLFGAFSVRGNEPGSDRSPSPSKNDSFFTPDSNHNSLSQSTTGHLSLPQKQYPDSPHPVPHRSLFSPQNTLAAPTGHPPTSGVEKVLASTISTTSTIEFKNMLKNASRKPSDDKHFGQAPSKGTPSDGVSLSNLTQPSLTATDQQQQEEHYRIETRVSSSCLDLPDSTEEKGAPIETLGYHSASNRRMSGEPIQTVESIRVPGKGNRGHGREASRVGWFDLSTSGSSFDNGPSSASELASLGGGGSGGLTGFKTAPYKERAPQFQESVGSFRSNSFNSTFEHHLPPSPLEHGTPFQREPVGPSSAPPVPPKDHGGIFSRDAPTHLPSVDLSNPFTKEAALAHAAPPPPPGEHSGIPFPTPPPPPPPGEHSSSGGSGVPFSTPPPPPPPVDHSGVVPFPAPPLAEHGVAGAVAVFPKDHSSLLQGTLAEHFGVLPGPRDHGGPTQRDLNGPGLSRVRESLTLPSHSLEHLGPPHGGGGGGGSNSSSGPPLGPSHRDTISRSGIILRSPRPDFRPREPFLSRDPFHSLKRPRPPFARGPPFFAPKRPFFPPRY [RPRD2]
[1]
  solubility change mitosis (log2): 0.0816
[2]; [5]
  thermal stability score: 2.07
[2]; cell cycle stage: mitosis
  thermal stability score: 4.95
[3]; cell cycle stage: G1/S
  melting temperature: 48 °C
[3]; cell cycle stage: mitosis
  melting temperature: 49.2 °C
[4]
  solubility in G1/S (log2): -0.0214

## MADESETAVKPPAPPLPQMMEGNGNGHEHCSDCENEEDNSYNRGGLSPANDTGAKKKKKKQKKKKEKGSETDSAQDQPVKMNSLPAERIQEIQKAIELFSVGQGPAKTMEEASKRSYQFWDTQPVPKLGEVVNTHGPVEPDKDNIRQEPYTLPQGFTWDALDLGDRGVLKELYTLLNENYVEDDDNMFRFDYSPEFLLWALRPPGWLPQWHCGVRVVSSRKLVGFISAIPANIHIYDTEKKMVEINFLCVHKKLRSKRVAPVLIREITRRVHLEGIFQAVYTAGVVLPKPVGTCRYWHRSLNPRKLIEVKFSHLSRNMTMQRTMKLYRLPETPKTAGLRPMETKDIPVVHQLLTRYLKQFHLTPVMSQEEVEHWFYPQENIIDTFVVENANGEVTDFLSFYTLPSTIMNHPTHKSLKAAYSFYNVHTQTPLLDLMSDALVLAKMKGFDVFNALDLMENKTFLEKLKFGIGDGNLQYYLYNWKCPSMGAEKVGLVLQ [NMT1]
[1]
  solubility change mitosis (log2): 0.1
[2]; [5]
  thermal stability score: -0.333
[2]; cell cycle stage: mitosis
  thermal stability score: -0.823
[3]; cell cycle stage: G1/S
  melting temperature: 53.9 °C
[3]; cell cycle stage: mitosis
  melting temperature: 53.5 °C
[4]
  solubility in G1/S (log2): -0.131

## MSVPSALMKQPPIQSTAGAVPVRNEKGEISMEKVKVKRYVSGKRPDYAPMESSDEEDEEFQFIKKAKEQEAEPEEQEEDSSSDPRLRRLQNRISEDVEERLARHRKIVEPEVVGESDSEVEGDAWRMEREDSSEEEEEEIDDEEIERRRGMMRQRAQERKNEEMEVMEVEDEGRSGEESESESEYEEYTDSEDEMEPRLKPVFIRKKDRVTVQEREAEALKQKELEQEAKRMAEERRKYTLKIVEEETKKELEENKRSLAALDALNTDDENDEEEYEAWKVRELKRIKRDREDREALEKEKAEIERMRNLTEEERRAELRANGKVITNKAVKGKYKFLQKYYHRGAFFMDEDEEVYKRDFSAPTLEDHFNKTILPKVMQVKNFGRSGRTKYTHLVDQDTTSFDSAWGQESAQNTKFFKQKAAGVRDVFERPSAKKRKTT [MFAP1]
[1]
  solubility change mitosis (log2): 0.782
[2]; [5]
  thermal stability score: -4
[2]; cell cycle stage: mitosis
  thermal stability score: -4.38
[3]; cell cycle stage: G1/S
  melting temperature: 57.2 °C
[3]; cell cycle stage: mitosis
  melting temperature: 54.3 °C
[4]
  solubility in G1/S (log2): -0.901

## MMTAG2
[1]
  solubility change mitosis (log2): 0.48
[2]; [5]
  thermal stability score: -3.08
[2]; cell cycle stage: mitosis
  thermal stability score: -5.63
[3]; cell cycle stage: G1/S
  melting temperature: 53 °C
[3]; cell cycle stage: mitosis
  melting temperature: 51.3 °C
[4]
  solubility in G1/S (log2): -1.03

## PHF5A
[1]
  solubility change mitosis (log2): 0.276
[2]; [5]
  thermal stability score: -3.94
[2]; cell cycle stage: mitosis
  thermal stability score: -5.73
[3]; cell cycle stage: G1/S
  melting temperature: 53.8 °C
[3]; cell cycle stage: mitosis
  melting temperature: 52.2 °C
[4]
  solubility in G1/S (log2): -0.51
